14 molecules from US20080286277A1 (GLYCART BIOTECHNOLOGY, published 2008) can be followed below.

B1: humanized ICR62 antibody I-HHD/I-KC4 (antibody, human IgG1, V domains shown)
VH: QVQLVQSGAEVKKPGSSVKVSCKASGFTFTDYKIHWVRQAPGQGLEWMGYFNPNSGYSTYAQKFQGRVTITADKSTSTAYMELSSLRSEDTAVYYCARLSPGGYYVMDAWGQGTTVTVSS
VL: DIQMTQSPSSLSASVGDRVTITCRASQGINNYLNWYQQKPGKAPKRLIYTTNNLQTGVPSRFSGSGSGTEFTLTISSLQPEDFATYYCLQHNSFPTFGQGTKLEIKR
B2: humanized ICR62 antibody I-HHD/I-KC8 (antibody, human IgG1, V domains shown)
VH: QVQLVQSGAEVKKPGSSVKVSCKASGFTFTDYKIHWVRQAPGQGLEWMGYFNPNSGYSTYAQKFQGRVTITADKSTSTAYMELSSLRSEDTAVYYCARLSPGGYYVMDAWGQGTTVTVSS
VL: DIQMTQSPSSLSASVGDRVTITCRASQGINNYLNWYQQKPGKAPKRLIYNTNNLQSGVPSRFSGSGSGTEFTLTISSLQPEDFATYYCLQHNSFPTFGQGTKLEIKR
B3: humanized ICR62 antibody I-HHD/I-KC2 (antibody, human IgG1, V domains shown)
VH: QVQLVQSGAEVKKPGSSVKVSCKASGFTFTDYKIHWVRQAPGQGLEWMGYFNPNSGYSTYAQKFQGRVTITADKSTSTAYMELSSLRSEDTAVYYCARLSPGGYYVMDAWGQGTTVTVSS
VL: DIQMTQSPSSLSASVGDRVTITCRASQGINNWLNWYQQKPGKAPKRLIYNTNNLQTGVPSRFSGSGSGTEFTLTISSLQPEDFATYYCLQHNSFPTFGQGTKLEIKR
B4: humanized ICR62 antibody I-HHD/I-KC9 (antibody, human IgG1, V domains shown)
VH: QVQLVQSGAEVKKPGSSVKVSCKASGFTFTDYKIHWVRQAPGQGLEWMGYFNPNSGYSTYAQKFQGRVTITADKSTSTAYMELSSLRSEDTAVYYCARLSPGGYYVMDAWGQGTTVTVSS
VL: DIQMTQSPSSLSASVGDRVTITCRASQGINNYLNWYQQKPGKAPKRLIYNTNNLQTGVPSRFSGSGSGTEFTLTISSLQPEDFATYYCLQHNSYPTFGQGTKLEIKR
B5: humanized ICR62 antibody I-HHD/I-KC6 (antibody, human IgG1, V domains shown)
VH: QVQLVQSGAEVKKPGSSVKVSCKASGFTFTDYKIHWVRQAPGQGLEWMGYFNPNSGYSTYAQKFQGRVTITADKSTSTAYMELSSLRSEDTAVYYCARLSPGGYYVMDAWGQGTTVTVSS
VL: DIQMTQSPSSLSASVGDRVTITCRASQGINNYLNWYQQKPGKAPKRLIYNTSNLQTGVPSRFSGSGSGTEFTLTISSLQPEDFATYYCLQHNSFPTFGQGTKLEIKR
B6: humanized ICR62 antibody I-HHD/I-KC7 (antibody, human IgG1, V domains shown)
VH: QVQLVQSGAEVKKPGSSVKVSCKASGFTFTDYKIHWVRQAPGQGLEWMGYFNPNSGYSTYAQKFQGRVTITADKSTSTAYMELSSLRSEDTAVYYCARLSPGGYYVMDAWGQGTTVTVSS
VL: DIQMTQSPSSLSASVGDRVTITCRASQGINNYLNWYQQKPGKAPKRLIYNTNSLQTGVPSRFSGSGSGTEFTLTISSLQPEDFATYYCLQHNSFPTFGQGTKLEIKR
B7: humanized ICR62 antibody I-HHD/I-KC5 (antibody, human IgG1, V domains shown)
VH: QVQLVQSGAEVKKPGSSVKVSCKASGFTFTDYKIHWVRQAPGQGLEWMGYFNPNSGYSTYAQKFQGRVTITADKSTSTAYMELSSLRSEDTAVYYCARLSPGGYYVMDAWGQGTTVTVSS
VL: DIQMTQSPSSLSASVGDRVTITCRASQGINNYLNWYQQKPGKAPKRLIYNANNLQTGVPSRFSGSGSGTEFTLTISSLQPEDFATYYCLQHNSFPTFGQGTKLEIKR
B8: humanized ICR62 antibody I-HHD-1/I-KC (antibody, human IgG1, V domains shown)
VH: QVQLVQSGAEVKKPGSSVKVSCKASGGTFTDYKIHWVRQAPGQGLEWMGYFNPNSGYSTYAQKFQGRVTITADKSTSTAYMELSSLRSEDTAVYYCARLSPGGYYVMDAWGQGTTVTVSS
VL: DIQMTQSPSSLSASVGDRVTITCRASQGINNYLNWYQQKPGKAPKRLIYNTNNLQTGVPSRFSGSGSGTEFTLTISSLQPEDFATYYCLQHNSFPTFGQGTKLEIKR
B9: humanized ICR62 antibody I-HHD-11/I-KC (antibody, human IgG1, V domains shown)
VH: QVQLVQSGAEVKKPGSSVKVSCKASGFTFTDYKIHWVRQAPGQGLEWMGYFNPNSGYSTYAQKFQGRVTITADKSTSTAYMELSSLRSEDTAVYYCARLSPGGYYVMDVWGQGTTVTVSS
VL: DIQMTQSPSSLSASVGDRVTITCRASQGINNYLNWYQQKPGKAPKRLIYNTNNLQTGVPSRFSGSGSGTEFTLTISSLQPEDFATYYCLQHNSFPTFGQGTKLEIKR
B10: humanized ICR62 antibody I-HHD-4/I-KC (antibody, human IgG1, V domains shown)
VH: QVQLVQSGAEVKKPGSSVKVSCKASGFTFTEYKIHWVRQAPGQGLEWMGYFNPNSGYSTYAQKFQGRVTITADKSTSTAYMELSSLRSEDTAVYYCARLSPGGYYVMDAWGQGTTVTVSS
VL: DIQMTQSPSSLSASVGDRVTITCRASQGINNYLNWYQQKPGKAPKRLIYNTNNLQTGVPSRFSGSGSGTEFTLTISSLQPEDFATYYCLQHNSFPTFGQGTKLEIKR
B11: humanized ICR62 antibody I-HHD-2/I-KC (antibody, human IgG1, V domains shown)
VH: QVQLVQSGAEVKKPGSSVKVSCKASGFSFTDYKIHWVRQAPGQGLEWMGYFNPNSGYSTYAQKFQGRVTITADKSTSTAYMELSSLRSEDTAVYYCARLSPGGYYVMDAWGQGTTVTVSS
VL: DIQMTQSPSSLSASVGDRVTITCRASQGINNYLNWYQQKPGKAPKRLIYNTNNLQTGVPSRFSGSGSGTEFTLTISSLQPEDFATYYCLQHNSFPTFGQGTKLEIKR
B12: humanized ICR62 antibody I-HHD-6/I-KC (antibody, human IgG1, V domains shown)
VH: QVQLVQSGAEVKKPGSSVKVSCKASGFTFTDYKIHWVRQAPGQGLEWMGYFNANSGYSTYAQKFQGRVTITADKSTSTAYMELSSLRSEDTAVYYCARLSPGGYYVMDAWGQGTTVTVSS
VL: DIQMTQSPSSLSASVGDRVTITCRASQGINNYLNWYQQKPGKAPKRLIYNTNNLQTGVPSRFSGSGSGTEFTLTISSLQPEDFATYYCLQHNSFPTFGQGTKLEIKR
B13: humanized ICR62 antibody I-HHD-7/I-KC (antibody, human IgG1, V domains shown)
VH: QVQLVQSGAEVKKPGSSVKVSCKASGFTFTDYKIHWVRQAPGQGLEWMGYFNPISGYSTYAQKFQGRVTITADKSTSTAYMELSSLRSEDTAVYYCARLSPGGYYVMDAWGQGTTVTVSS
VL: DIQMTQSPSSLSASVGDRVTITCRASQGINNYLNWYQQKPGKAPKRLIYNTNNLQTGVPSRFSGSGSGTEFTLTISSLQPEDFATYYCLQHNSFPTFGQGTKLEIKR
B14: humanized ICR62 antibody I-HHD-9/I-KC (antibody, human IgG1, V domains shown)
VH: QVQLVQSGAEVKKPGSSVKVSCKASGFTFTDYKIHWVRQAPGQGLEWMGYFNPNSGYATYAQKFQGRVTITADKSTSTAYMELSSLRSEDTAVYYCARLSPGGYYVMDAWGQGTTVTVSS
VL: DIQMTQSPSSLSASVGDRVTITCRASQGINNYLNWYQQKPGKAPKRLIYNTNNLQTGVPSRFSGSGSGTEFTLTISSLQPEDFATYYCLQHNSFPTFGQGTKLEIKR

One assay deals with T1, human epidermal growth factor receptor (EGFR) (human, UniProt P00533 25-1210).
T1 construct: whole, on cells; also called HER-1; ErbB1
The experiment in a line: flow cytometry on A431 cells, light chain paired with I-HHD.
As to B1, the binding result was “binds”.

For the molecule B2, the binding result is given as “binds”.

As for B3, the binding result was “binds”.

As for B4, the binding result was “binds”.

For B5, the binding result is “binds”.

On to B6, for which the binding result is listed as “binds”.

For the molecule B7, the binding result is “binds”.

A further assay has as its target T1, human epidermal growth factor receptor …. The experiment in a line: flow cytometry on A431 cells, heavy chain paired with I-KC.
On to B8, for which the binding result is recorded as “binds”.

As for B9, the binding result is reported as “binds”.

As for B10, the binding result was “binds”.

In the case of B11, the binding result is listed as “binds”.

For B12, the binding result was “binds”.

Turning to B13, the binding result is recorded as “binds”.

Regarding B14, the binding result is reported as “binds”.
